Source: patent US20150344570A1 (published 2015)

Tests used:
[1] = target: T1, FcγRIa (human, UniProt P12314 16-292); experiment: ratio of He/Con_1a to He/Con_2b (FcγRIa over FcγRIIb), SPR
T1 construct: extracellular domain; also called FcgRI; CD64
Method: (§1) The heterodimerized antibodies He Abs in which one of the H chains was introduced with an alteration were assayed for their binding activities to each activating FcγR and inhibitory FcγR according to the method described in Example 4. […] The activating FcγRs in FIGS. 26, 27, 28, and 29 are FcγRIa, FcγRIIa (R), FcγRIIa (H), and FcγRIIIa, respectively.
(§2) Analysis of interaction between objective antibody and the FcγR was carried out using Biacore T100 (GE Healthcare). HBS-EP+ (GE Healthcare) was used as the running buffer, and the measurement temperature was set to 25° C. Chips produced by immobilizing the antigen peptide by the amine coupling method to a Series S Sencor Chip CM5 (GE Healthcare), or alternatively, chips produced by allowing preliminarily biotinylated antigen peptides to interact with and immobilize onto a Series S Sensor Chip SA (certified) (GE Healthcare) were used. Antibodies of interest were captured onto an antigen peptide-immobilized chip, and allowed to interact to each FcγR diluted with running buffer. To regenerate and repeatedly use the chip, the antibodies captured on the chip were washed off by reacting 10 mM glycine-HCl, pH 1.5.

[2] = target: T1, FcγRIa; experiment: SPR (Biacore), captured antibody, soluble FcγR; relative to GpH7-A5/GpH7-B3/GpL16-k0 = 100
Method: as §1, §2

[3] = target: T2, FcγRIIb (human, UniProt P31994 43-217); experiment: as above
T2 construct: extracellular domain; also called FcgRIIb; CD32B
T2 sequence (looked up): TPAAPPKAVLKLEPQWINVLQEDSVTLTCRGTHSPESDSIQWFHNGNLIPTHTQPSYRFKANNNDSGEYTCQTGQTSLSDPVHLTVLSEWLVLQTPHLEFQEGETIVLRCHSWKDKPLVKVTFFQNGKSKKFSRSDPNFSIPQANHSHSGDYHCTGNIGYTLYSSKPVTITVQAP
Method: as §1, §2

T1 sequence (P12314 16-292): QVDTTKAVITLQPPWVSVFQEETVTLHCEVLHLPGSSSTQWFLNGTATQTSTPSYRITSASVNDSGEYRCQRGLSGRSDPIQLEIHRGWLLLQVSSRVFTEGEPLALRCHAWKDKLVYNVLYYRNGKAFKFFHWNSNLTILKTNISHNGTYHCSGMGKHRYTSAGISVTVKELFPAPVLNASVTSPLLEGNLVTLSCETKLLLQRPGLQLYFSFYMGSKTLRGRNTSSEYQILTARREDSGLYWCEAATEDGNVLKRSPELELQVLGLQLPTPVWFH

Row | Binder | He_1a/2b (Ia/IIb) [1] | He/Con_1a [2] | He/Con_2b [3]
1 | GpH7-A5/GpH7-B3 variant A330_18N/GpL16-k0 (antibody, human IgG1, kappa, He Ab; mutation in the GpH7-B3 chain only; also called He Ab) heavy 1: not shown heavy 2: not shown light: DIVMTQSPLSLPVTPGEPASISCQASESLVHSNRNTYLHWYLQKPGQSPQLLIYKVSNRFSGVPDRFSGSGSGTDFTLKISRVEAEDVGVYYCSQNTHVPPTFGQGTKVEIERTVAAPSVFIFPPSDEQLKSGTASVVCLLNNFYPREAKVQWKVDNALQSGNSQESVTEQDSKDSTYSLSSTLTLSKADYEKHKVYACEVTHQGLSSPVTKSFNRGEC | 1.67 | 106 % of control | 63.7 % of control
2 | GpH7-A5/GpH7-B3 variant E333_12R/GpL16-k0 (antibody, human IgG1, kappa, He Ab; mutation in the GpH7-B3 chain only; also called He Ab) heavy 1: not shown heavy 2: not shown light: DIVMTQSPLSLPVTPGEPASISCQASESLVHSNRNTYLHWYLQKPGQSPQLLIYKVSNRFSGVPDRFSGSGSGTDFTLKISRVEAEDVGVYYCSQNTHVPPTFGQGTKVEIERTVAAPSVFIFPPSDEQLKSGTASVVCLLNNFYPREAKVQWKVDNALQSGNSQESVTEQDSKDSTYSLSSTLTLSKADYEKHKVYACEVTHQGLSSPVTKSFNRGEC | 1.27 | 102 % of control | 80.4 % of control
3 | GpH7-A5/GpH7-B3 variant E333_02A/GpL16-k0 (antibody, human IgG1, kappa, He Ab; mutation in the GpH7-B3 chain only; also called He Ab) heavy 1: not shown heavy 2: not shown light: DIVMTQSPLSLPVTPGEPASISCQASESLVHSNRNTYLHWYLQKPGQSPQLLIYKVSNRFSGVPDRFSGSGSGTDFTLKISRVEAEDVGVYYCSQNTHVPPTFGQGTKVEIERTVAAPSVFIFPPSDEQLKSGTASVVCLLNNFYPREAKVQWKVDNALQSGNSQESVTEQDSKDSTYSLSSTLTLSKADYEKHKVYACEVTHQGLSSPVTKSFNRGEC | 1.23 | 103 % of control | 83.8 % of control
4 | GpH7-A5/GpH7-B3 variant I336_13S/GpL16-k0 (antibody, human IgG1, kappa, He Ab; mutation in the GpH7-B3 chain only; also called He Ab) heavy 1: not shown heavy 2: not shown light: DIVMTQSPLSLPVTPGEPASISCQASESLVHSNRNTYLHWYLQKPGQSPQLLIYKVSNRFSGVPDRFSGSGSGTDFTLKISRVEAEDVGVYYCSQNTHVPPTFGQGTKVEIERTVAAPSVFIFPPSDEQLKSGTASVVCLLNNFYPREAKVQWKVDNALQSGNSQESVTEQDSKDSTYSLSSTLTLSKADYEKHKVYACEVTHQGLSSPVTKSFNRGEC | 1.22 | 102 % of control | 83.7 % of control
5 | GpH7-A5/GpH7-B3 variant A330_20W/GpL16-k0 (antibody, human IgG1, kappa, He Ab; mutation in the GpH7-B3 chain only; also called He Ab) heavy 1: not shown heavy 2: not shown light: DIVMTQSPLSLPVTPGEPASISCQASESLVHSNRNTYLHWYLQKPGQSPQLLIYKVSNRFSGVPDRFSGSGSGTDFTLKISRVEAEDVGVYYCSQNTHVPPTFGQGTKVEIERTVAAPSVFIFPPSDEQLKSGTASVVCLLNNFYPREAKVQWKVDNALQSGNSQESVTEQDSKDSTYSLSSTLTLSKADYEKHKVYACEVTHQGLSSPVTKSFNRGEC | 1.41 | 108 % of control | 76.1 % of control
6 | GpH7-A5/GpH7-B3 variant I336_15Y/GpL16-k0 (antibody, human IgG1, kappa, He Ab; mutation in the GpH7-B3 chain only; also called He Ab) heavy 1: not shown heavy 2: not shown light: DIVMTQSPLSLPVTPGEPASISCQASESLVHSNRNTYLHWYLQKPGQSPQLLIYKVSNRFSGVPDRFSGSGSGTDFTLKISRVEAEDVGVYYCSQNTHVPPTFGQGTKVEIERTVAAPSVFIFPPSDEQLKSGTASVVCLLNNFYPREAKVQWKVDNALQSGNSQESVTEQDSKDSTYSLSSTLTLSKADYEKHKVYACEVTHQGLSSPVTKSFNRGEC | 1.51 | 103 % of control | 68.2 % of control
7 | GpH7-A5/GpH7-B3 variant E333_18N/GpL16-k0 (antibody, human IgG1, kappa, He Ab; mutation in the GpH7-B3 chain only; also called He Ab) heavy 1: not shown heavy 2: not shown light: DIVMTQSPLSLPVTPGEPASISCQASESLVHSNRNTYLHWYLQKPGQSPQLLIYKVSNRFSGVPDRFSGSGSGTDFTLKISRVEAEDVGVYYCSQNTHVPPTFGQGTKVEIERTVAAPSVFIFPPSDEQLKSGTASVVCLLNNFYPREAKVQWKVDNALQSGNSQESVTEQDSKDSTYSLSSTLTLSKADYEKHKVYACEVTHQGLSSPVTKSFNRGEC | 1.27 | 96.6 % of control | 76.1 % of control
8 | GpH7-A5/GpH7-B3 variant I336_19Q/GpL16-k0 (antibody, human IgG1, kappa, He Ab; mutation in the GpH7-B3 chain only; also called He Ab) heavy 1: not shown heavy 2: not shown light: DIVMTQSPLSLPVTPGEPASISCQASESLVHSNRNTYLHWYLQKPGQSPQLLIYKVSNRFSGVPDRFSGSGSGTDFTLKISRVEAEDVGVYYCSQNTHVPPTFGQGTKVEIERTVAAPSVFIFPPSDEQLKSGTASVVCLLNNFYPREAKVQWKVDNALQSGNSQESVTEQDSKDSTYSLSSTLTLSKADYEKHKVYACEVTHQGLSSPVTKSFNRGEC | 1.78 | 104 % of control | 58.2 % of control
9 | GpH7-A5/GpH7-B3 variant E333_16H/GpL16-k0 (antibody, human IgG1, kappa, He Ab; mutation in the GpH7-B3 chain only; also called He Ab) heavy 1: not shown heavy 2: not shown light: DIVMTQSPLSLPVTPGEPASISCQASESLVHSNRNTYLHWYLQKPGQSPQLLIYKVSNRFSGVPDRFSGSGSGTDFTLKISRVEAEDVGVYYCSQNTHVPPTFGQGTKVEIERTVAAPSVFIFPPSDEQLKSGTASVVCLLNNFYPREAKVQWKVDNALQSGNSQESVTEQDSKDSTYSLSSTLTLSKADYEKHKVYACEVTHQGLSSPVTKSFNRGEC | 1.21 | 101 % of control | 83.3 % of control
10 | GpH7-A5/GpH7-B3 variant I336_02A/GpL16-k0 (antibody, human IgG1, kappa, He Ab; mutation in the GpH7-B3 chain only; also called He Ab) heavy 1: not shown heavy 2: not shown light: DIVMTQSPLSLPVTPGEPASISCQASESLVHSNRNTYLHWYLQKPGQSPQLLIYKVSNRFSGVPDRFSGSGSGTDFTLKISRVEAEDVGVYYCSQNTHVPPTFGQGTKVEIERTVAAPSVFIFPPSDEQLKSGTASVVCLLNNFYPREAKVQWKVDNALQSGNSQESVTEQDSKDSTYSLSSTLTLSKADYEKHKVYACEVTHQGLSSPVTKSFNRGEC | 1.25 | 106 % of control | 84.9 % of control
11 | GpH7-A5/GpH7-B3 variant E333_01G/GpL16-k0 (antibody, human IgG1, kappa, He Ab; mutation in the GpH7-B3 chain only; also called He Ab) heavy 1: not shown heavy 2: not shown light: DIVMTQSPLSLPVTPGEPASISCQASESLVHSNRNTYLHWYLQKPGQSPQLLIYKVSNRFSGVPDRFSGSGSGTDFTLKISRVEAEDVGVYYCSQNTHVPPTFGQGTKVEIERTVAAPSVFIFPPSDEQLKSGTASVVCLLNNFYPREAKVQWKVDNALQSGNSQESVTEQDSKDSTYSLSSTLTLSKADYEKHKVYACEVTHQGLSSPVTKSFNRGEC | 1.26 | 103 % of control | 81.4 % of control
12 | GpH7-A5/GpH7-B3 variant I336_20W/GpL16-k0 (antibody, human IgG1, kappa, He Ab; mutation in the GpH7-B3 chain only; also called He Ab) heavy 1: not shown heavy 2: not shown light: DIVMTQSPLSLPVTPGEPASISCQASESLVHSNRNTYLHWYLQKPGQSPQLLIYKVSNRFSGVPDRFSGSGSGTDFTLKISRVEAEDVGVYYCSQNTHVPPTFGQGTKVEIERTVAAPSVFIFPPSDEQLKSGTASVVCLLNNFYPREAKVQWKVDNALQSGNSQESVTEQDSKDSTYSLSSTLTLSKADYEKHKVYACEVTHQGLSSPVTKSFNRGEC | 4.28 | 86.7 % of control | 20.3 % of control
13 | GpH7-A5/GpH7-B3 variant I332_12R/GpL16-k0 (antibody, human IgG1, kappa, He Ab; mutation in the GpH7-B3 chain only; also called He Ab) heavy 1: not shown heavy 2: not shown light: DIVMTQSPLSLPVTPGEPASISCQASESLVHSNRNTYLHWYLQKPGQSPQLLIYKVSNRFSGVPDRFSGSGSGTDFTLKISRVEAEDVGVYYCSQNTHVPPTFGQGTKVEIERTVAAPSVFIFPPSDEQLKSGTASVVCLLNNFYPREAKVQWKVDNALQSGNSQESVTEQDSKDSTYSLSSTLTLSKADYEKHKVYACEVTHQGLSSPVTKSFNRGEC | 2.05 | 100 % of control | 48.9 % of control
14 | GpH7-A5/GpH7-B3 variant I336_01G/GpL16-k0 (antibody, human IgG1, kappa, He Ab; mutation in the GpH7-B3 chain only; also called He Ab) heavy 1: not shown heavy 2: not shown light: DIVMTQSPLSLPVTPGEPASISCQASESLVHSNRNTYLHWYLQKPGQSPQLLIYKVSNRFSGVPDRFSGSGSGTDFTLKISRVEAEDVGVYYCSQNTHVPPTFGQGTKVEIERTVAAPSVFIFPPSDEQLKSGTASVVCLLNNFYPREAKVQWKVDNALQSGNSQESVTEQDSKDSTYSLSSTLTLSKADYEKHKVYACEVTHQGLSSPVTKSFNRGEC | 1.21 | 109 % of control | 90.1 % of control
15 | GpH7-A5/GpH7-B3 variant E333_13S/GpL16-k0 (antibody, human IgG1, kappa, He Ab; mutation in the GpH7-B3 chain only; also called He Ab) heavy 1: not shown heavy 2: not shown light: DIVMTQSPLSLPVTPGEPASISCQASESLVHSNRNTYLHWYLQKPGQSPQLLIYKVSNRFSGVPDRFSGSGSGTDFTLKISRVEAEDVGVYYCSQNTHVPPTFGQGTKVEIERTVAAPSVFIFPPSDEQLKSGTASVVCLLNNFYPREAKVQWKVDNALQSGNSQESVTEQDSKDSTYSLSSTLTLSKADYEKHKVYACEVTHQGLSSPVTKSFNRGEC | 1.26 | 103 % of control | 81.8 % of control
16 | GpH7-A5/GpH7-B3 variant E333_11K/GpL16-k0 (antibody, human IgG1, kappa, He Ab; mutation in the GpH7-B3 chain only; also called He Ab) heavy 1: not shown heavy 2: not shown light: DIVMTQSPLSLPVTPGEPASISCQASESLVHSNRNTYLHWYLQKPGQSPQLLIYKVSNRFSGVPDRFSGSGSGTDFTLKISRVEAEDVGVYYCSQNTHVPPTFGQGTKVEIERTVAAPSVFIFPPSDEQLKSGTASVVCLLNNFYPREAKVQWKVDNALQSGNSQESVTEQDSKDSTYSLSSTLTLSKADYEKHKVYACEVTHQGLSSPVTKSFNRGEC | 1.27 | 102 % of control | 80.6 % of control
